Assay [1] concerns the target T1, human serum albumin (human, UniProt P02768 25-609).
T1 construct: also called HSA; human albumin
The experiment in a line: SPR (Biacore 3000), HSA amine-coupled on CM5 chip, pH 6.0, no VHH.

Assay [2] deals with T1, human serum albumin. Put plainly: sandwich: biotin-hC5 on CAP chip, test protein, then albumin; column 'Human C5 and Human Albumin'; protein has no anti-albumin domain.
Experimental: (§1) The 26 constructs listed in Table 13 were expressed and the fusion proteins were evaluated for binding to human C5 and albumin (Table 13-Octet binding), generation of aggregates, hydrophobicity (HIC HPLC) and glycosylation (electrospray mass spectrometry). For the octet analysis, biotinylated human C5 was captured on a CAP chip followed by an injection of a test bi-specific molecule. Various concentrations of albumin were subsequently injected. Kinetics were determined at pH 7.4 (Biacore 3000).
Assay [3] addresses T2, human complement protein C5 (human, UniProt P01031 19-1676).
T2 construct: Native C5 is a two-chain protein made from one precursor; also called hC5; human C5
The experiment in a line: SPR (Biacore), pH 6.0.

The target in assay [4] is T3, cynomolgus monkey (cyno) complement protein C5 (cynomolgus monkey, UniProt A0A2K5U1T1 19-1676).
T3 construct: also called cC5; cyno C5
Put plainly: SPR (Biacore), pH 6.0.

Assay [5] addresses T2, human complement protein C5. The experiment in a line: SPR (Biacore), pH 7.4.
Assay [6] deals with T3, cynomolgus monkey (cyno) complement …. The experiment in a line: SPR (Biacore), pH 7.4.
Assay [7] has as its target T4, Cynomolgus monkey serum albumin (cynomolgus monkey, UniProt A2V9Z4 25-608).
T4 construct: also called CSA; cynomolgus albumin
Put plainly: binding kinetics (method not named), pH 7.4.

Assay [8] deals with T5, Plasbumin® (UniProt P02768 25-609). Put plainly: binding kinetics (method not named), pH 7.4.
The target of assay [9] is T4, Cynomolgus monkey serum albumin. Put plainly: binding kinetics (method not named), pH 6.0.
Assay [10] concerns the target T5, Plasbumin®. The experiment in a line: binding kinetics (method not named), pH 6.0.
The target in assay [11] is T2, human complement protein C5. Put plainly: binding kinetics (method not named), pH 7.4.
Assay [12] addresses T3, cynomolgus monkey (cyno) complement …. The experiment in a line: binding kinetics (method not named), pH 7.4.
Assay [13] concerns the target T2, human complement protein C5. The experiment in a line: binding kinetics (method not named), pH 6.0.
In assay [14] the target is T3, cynomolgus monkey (cyno) complement …. Put plainly: binding kinetics (method not named), pH 6.0.
Assay [15] addresses T4, Cynomolgus monkey serum albumin. Put plainly: BLI (Octet HTX), VHH-His on Penta-His sensors, 100 nM albumin.
Text: (§2) VHH sequences were first analyzed by SDS-PAGE and Coomassie staining to determine approximate concentration relative to a known standard. Supernatant concentrations were then normalized and subjected to biolayer interferometry on an Octet HTX (Pall/ForteBio). Penta-His sensors were exposed to kinetics buffer for 60 seconds to establish baseline measurements. The sensors were then loaded with VHH-His containing supernatants for 300 seconds before a second baseline was established in kinetics buffer over 120 seconds. Tips were then incubated with 100 nM HSA or CSA in kinetics buffer for 600 seconds and dissociation measured over an additional 600 seconds.
The target of assay [16] is T1, human serum albumin. The description is as above.
Text: as §2
Assay [17] deals with T2, human complement protein C5. Put plainly: sandwich: biotin-hC5 on CAP chip, test protein, then albumin; column 'Human C5 and Human Albumin'; protein has no anti-C5 domain.
Experimental: as §1
Assay [18] deals with T4, Cynomolgus monkey serum albumin. The experiment in a line: SPR (Biacore 3000), biotinylated albumin on CAP chip, pH 7.4.
Experimental: (§3) Biotinylated albumin was captured onto a CAP chip saturated with Biotin CAPture reagent containing deoxyribooligonucleotides (obtained from GE Healthcare). Concentrations of purified VHH domains were injected for 5 minutes at a flowrate of 50 μL/min. Three concentrations were assessed per VHH domain. Bound analyte was allowed to dissociate for 600 seconds. The chip surface was regenerated after each concentration by injecting 6 M guanidine HCl/0.25 M NaOH for 2 minutes at 10 μL/min. Kinetics were determined at pH 7.4 and pH 6.0 in HBS-EP buffer using a 1:1 Langmuir model (local Rₘₐₓ and constant RI) and double reference subtraction (subtraction of a buffer concentration cycle from the sample concentration cycle and subtraction of a parallel reference flow cell).
For assay [19], the target named is T1, human serum albumin. The description is as above.
Experimental: as §3
Assay [20] has as its target T4, Cynomolgus monkey serum albumin. Put plainly: SPR (Biacore 3000), biotinylated albumin on CAP chip, pH 6.0.
Experimental: as §3
In assay [21] the target is T1, human serum albumin. The assay is described as above.
Experimental: as §3

The values below come from patent US20250163138A1 (Alexion, published 2025).

Where a chain is given by its changes, count along the chain named. Names and notes keep the numbering of the source.

In the assay with human serum albumin [1], FcRn (receptor) returned a response difference of 30 RU.

B1: TPP-3211 (VHH)
VHH: EVQLVESGGGLVQPGGSLRLSCAASGRAHSDYAMAWFRQAPGQEREFVAGIGWSGGDTLYADSVRGRFTNSRDNSKNTLYLQMNSLRAEDTAVYYCAARQGQYIYSSMRSDSYDYWGQGTLVTVSS
notes: Control: no anti-albumin domain (only anti-C5)
As to B1, in the assay with human serum albumin [2], the binding result is given as “no binding”.

B2: CRL0484 (bispecific antibody)
chain: EVQLVESGGGLVQPGGSLRLSCAASGRTFSGILSPYAVGWFRQAPGKGLEFVSTITSGGSAIYTDSVKGRFTISRDNAKDSLYLQMNSLRAEDTAVYYCAVRTRRYGSNLGEVPQENEYGYWGQGTLVTVSSGGGGSGGGGSGGGGSEVQLVESGGGLVKPGGSLRLSCAASGRPVSNYAAAWFRQAPGKEREFVSAINWQKTATYADSVKGRFTISRDNAKNSLYLQMNSLRAEDTAVYYCAAVFRVVAPKTQYDYDYWGQGTLVTVSS
notes: anti-C5 VHH / (G4S)3 / anti-albumin VHH fusion, purified by Protein A; also called CRL0484 (C5/HSA)
For B2, the Kd in assay [3] turned out to be 0.556 nM; in assay [4], 0.128 nM; in [5] it was 1.1 nM; in [6], 0.24 nM. The koff is 0.000236 s⁻¹ in [3], 6.17e-06 s⁻¹ in assay [4], 7.69e-05 s⁻¹ in assay [5] and 2.2e-05 s⁻¹ in assay [6]. Besides, the kon in [3] came out at 425000 M⁻¹ s⁻¹; in assay [4], 48200 M⁻¹ s⁻¹; in assay [5] it was 70100 M⁻¹ s⁻¹; in assay [6], 91500 M⁻¹ s⁻¹.

B3: CRL0500 (bispecific antibody)
chain: EVQLVESGGGLVKPGGSLRLSCAASGRPVSNYAAAWFRQAPGKEREFVSAINWQKTATYADSVKGRFTISRDNAKNSLYLQMNSLRAEDTAVYYCAAVFRVVAPKTQYDYDYWGQGTLVTVSSGGGGSGGGGSGGGGSEVQLVESGGGLVQPGGSLRLSCAASGRAHSDYAMAWFRQAPGQEREFVAGIGWSGGDTLYADSVRGRFTNSRDNSKNTLYLQMNSLRAEDTAVYYCAARQGQYIYSSMRSDSYDYWGQGTLVTVSS
notes: anti-albumin VHH / (G4S)3 / anti-C5 VHH fusion, purified by Protein A; also called CRL0500 (HSA/C5)
Regarding B3, the Kd in assay [7] was 3.78 nM; with Plasbumin® [8] it was 0.936 nM; in [9] it was 2.12 nM; with Plasbumin® [10] it was 0.563 nM; in [3] it was 0.189 nM; in assay [4], 0.641 nM. Further, the equilibrium dissociation constant (Kd) was determined as 0.0512 nM in assay [11]; 0.219 nM in assay [12]; 0.138 nM in [13]; 0.744 nM in [14]; 0.233 nM in assay [5]; 0.42 nM in assay [6]. Moreover, the koff worked out at 0.0126 s⁻¹ in assay [7]; 0.00346 s⁻¹ in the assay with Plasbumin® [8]; 0.00693 s⁻¹ in assay [9]; 0.002 s⁻¹ with Plasbumin® [10]; 0.00152 s⁻¹ in [3]; 0.0025 s⁻¹ in [4]. The off-rate constant (koff) amounted to 0.000491 s⁻¹ in assay [11]; 0.000818 s⁻¹ in assay [12]; 0.00104 s⁻¹ in assay [13]; 0.0041 s⁻¹ in [14]; 0.000672 s⁻¹ in [5]; 0.000848 s⁻¹ in [6]. Further, the on-rate (kon) in assay [7] was 3.32e+06 M⁻¹ s⁻¹; in the assay with Plasbumin® [8], 3.7e+06 M⁻¹ s⁻¹; in assay [9] it was 3.27e+06 M⁻¹ s⁻¹; in the assay with Plasbumin® [10], 3.55e+06 M⁻¹ s⁻¹; in [3], 8.02e+06 M⁻¹ s⁻¹; in [4] it was 3.91e+06 M⁻¹ s⁻¹. Besides, the kon in [11] is 9.6e+06 M⁻¹ s⁻¹; in [12] it was 3.74e+06 M⁻¹ s⁻¹; in assay [13], 7.56e+06 M⁻¹ s⁻¹; in [14], 5.51e+06 M⁻¹ s⁻¹; in assay [5], 2.88e+06 M⁻¹ s⁻¹; in [6] it was 2e+06 M⁻¹ s⁻¹.

B4: CRL0952 (bispecific antibody)
chain: B3 chain with S128A, S133A
As to B4, the Kd in assay [7] came out at 5.19 nM; with Plasbumin® [8], 0.901 nM; in [9], 2.49 nM; in the assay with Plasbumin® [10], 0.649 nM; in assay [11] it was 0.0536 nM; in [12] it was 0.223 nM. In addition, the Kd in assay [13] came to 0.155 nM; in assay [14], 0.72 nM. The koff worked out at 0.0152 s⁻¹ in [7]; 0.00359 s⁻¹ with Plasbumin® [8]; 0.00755 s⁻¹ in assay [9]; 0.0021 s⁻¹ with Plasbumin® [10]; 0.000539 s⁻¹ in assay [11]; 0.000786 s⁻¹ in assay [12]. Also, the koff in assay [13] came to 0.000907 s⁻¹; in assay [14] it was 0.00399 s⁻¹. For the same molecule, the kon in assay [7] is 2.93e+06 M⁻¹ s⁻¹; with Plasbumin® [8] it was 3.98e+06 M⁻¹ s⁻¹; in assay [9], 3.03e+06 M⁻¹ s⁻¹; in the assay with Plasbumin® [10], 3.23e+06 M⁻¹ s⁻¹; in assay [11], 1.01e+07 M⁻¹ s⁻¹; in assay [12], 3.53e+06 M⁻¹ s⁻¹. Also, the on-rate constant (kon) stood at 5.84e+06 M⁻¹ s⁻¹ in assay [13] and 5.55e+06 M⁻¹ s⁻¹ in assay [14].

B5: HAS042 (VHH)
VHH: EVQLVESGGGLVKPGGSLRLSCAASGRPVSNYAAAWFRQAPGKEREFVSAINWQKTATYADSVKGRFTISRDNAKNSLYLQMNSLRAEDTAVYYCAAVFRVVAPKTQYDYDYWGQGTLVTVSS
notes: anti-albumin VHH-His
Take B5: the binding result (in assay [15]; with human serum albumin [16]) was “binds” throughout.

B6: TPP-3212 (VHH)
VHH: B5 VHH
notes: Control: no anti-C5 domain (only anti-albumin)
With B6, in [17], the binding result is recorded as “no binding”.

B7: MSA21 VHH domain (VHH)
VHH: QVQLQESGGGLVQPGGSLRLSCEASGFTFSRFGMTWVRQAPGKGVEWVSGISSLGDSTLYADSVKGRFTISRDNAKNTLYLQMNSLKPEDTAVYYCTIGGSLNPGGQGTQVTVSS
notes: Published comparator (WO 2004/062551 A2); also called ADL021
In the case of B7, the Kd in assay [18] worked out at 3.85 nM; with human serum albumin [19], 3.49 nM; in assay [20], 5.47 nM; with human serum albumin [21] it was 5.46 nM. Moreover, the koff in assay [18] came out at 0.00216 s⁻¹; with human serum albumin [19], 0.00393 s⁻¹; in assay [20] it was 0.00153 s⁻¹; in the assay with human serum albumin [21] it was 0.00181 s⁻¹. The kon in assay [18] came to 561000 M⁻¹ s⁻¹; in the assay with human serum albumin [19] it was 1.13e+06 M⁻¹ s⁻¹; in assay [20], 280000 M⁻¹ s⁻¹; with human serum albumin [21] it was 330000 M⁻¹ s⁻¹.

B8: CRL0483 (bispecific antibody)
chain: EVQLVESGGGLVQPGGSLRLSCAASGRTFSGILSPYAVGWFRQAPGKGLEFVSTITSGGSAIYTDSVKGRFTISRDNAKDSLYLQMNSLRAEDTAVYYCAVRTRRYGSNLGEVPQENEYGYWGQGTLVTVSSGGGGSGGGGSGGGGSEVQLLESGGGLVQPGGSLRLSCAASGFTFRSFGMSWVRQAPGKGPEWVSSISGSGSDTLYADSVKGRFTISRDNSKNTLYLQMNSLRPEDTAVYYCTIGGSLSRSSQGTLVTVSS
notes: anti-C5 VHH / (G4S)3 / anti-albumin VHH fusion, purified by Protein A; also called CRL0483 (C5/HSA)
Turning to B8, the equilibrium dissociation constant (Kd) in assay [3] stood at 5.27 nM; in assay [4], 1.25 nM; in assay [5] it was 1.07 nM; in assay [6] it was 0.24 nM. Further, the koff in assay [3] worked out at 0.000211 s⁻¹; in assay [4] it was 4.62e-05 s⁻¹; in assay [5], 0.000242 s⁻¹; in assay [6] it was 2.2e-05 s⁻¹. Further, the on-rate (kon) worked out at 40000 M⁻¹ s⁻¹ in [3], 37100 M⁻¹ s⁻¹ in assay [4], 225000 M⁻¹ s⁻¹ in [5] and 91500 M⁻¹ s⁻¹ in [6].
